In US20150141617A1, “PRODUCTION AND PURIFICATION OF ACTIVE EUKARYOTIC FORMYLGLYCINEGENERATING ENZYME (FGE) VARIANTS” (Universität Bielefeld, priority 2013, published 2015):

How the values were obtained:
[1] = target: T1, human PACE4 (Homo sapiens, UniProt P29122); test: FGE processing in CHO-FD11 Tet-On cells co-expressing PACE4; format: cell-based; settings: PACE4 coexpression
T1 construct: expressed in transfected cells; host or cells: CHO-FD11 Tet-On cells, transient co-transfection with pBI-FGE-HA
T1 sequence (P29122 150-969): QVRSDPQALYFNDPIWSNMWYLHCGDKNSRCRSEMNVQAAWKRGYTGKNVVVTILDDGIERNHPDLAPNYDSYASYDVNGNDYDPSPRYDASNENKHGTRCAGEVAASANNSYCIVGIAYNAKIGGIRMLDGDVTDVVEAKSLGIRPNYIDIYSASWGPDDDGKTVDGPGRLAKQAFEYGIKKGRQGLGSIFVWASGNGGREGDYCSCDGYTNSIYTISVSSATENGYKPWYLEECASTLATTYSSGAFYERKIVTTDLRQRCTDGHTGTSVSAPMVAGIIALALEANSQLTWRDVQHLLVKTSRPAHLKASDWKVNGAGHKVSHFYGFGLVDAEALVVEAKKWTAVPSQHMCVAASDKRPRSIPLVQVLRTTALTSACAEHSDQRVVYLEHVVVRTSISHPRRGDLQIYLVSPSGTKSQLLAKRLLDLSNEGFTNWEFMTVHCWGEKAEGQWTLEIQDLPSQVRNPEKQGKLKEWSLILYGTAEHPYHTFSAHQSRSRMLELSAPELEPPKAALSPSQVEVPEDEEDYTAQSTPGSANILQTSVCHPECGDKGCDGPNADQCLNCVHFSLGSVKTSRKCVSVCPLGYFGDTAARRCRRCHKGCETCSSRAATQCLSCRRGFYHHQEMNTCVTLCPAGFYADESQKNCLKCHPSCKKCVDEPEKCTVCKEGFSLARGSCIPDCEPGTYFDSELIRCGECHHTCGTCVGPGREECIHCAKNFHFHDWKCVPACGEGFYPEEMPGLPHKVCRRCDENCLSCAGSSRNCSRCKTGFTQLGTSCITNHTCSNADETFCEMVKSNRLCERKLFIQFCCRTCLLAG
Source text: (§1) The resulting constructs were verified by full-length sequencing of the coding region to exclude any PCR prone errors. Plasmids for expression of the PCs encoding human furin (Gene ID 5045), human PACE4 (=PCSK6, Gene ID 5046), murine […] (=Pcsk5, Gene ID 18552) and rat PC7 (=Pcsk7, Gene ID 29606) were kindly provided by Abdel-Majid Khatib (18). Note that the PC cDNAs were encoded as pIRES constructs coding also for enhanced green fluorescence protein (EGFP) such that EGFP expression levels serve as a measure of the expression levels of PCs.
(§2) 3 μg of pSB-FGE-RGS-His6 vector was used for single transfections of HT1080, HeLa, HEK 293, BHK and CHO cells. Conditioned medium was collected after 24 h and centrifuged (500×g, 5 min) Cells were washed once with PBS, treated with trypsin (Lonza) and pelleted by 250×g to remove the medium. Cell pellets were resuspended in PBS (pH 7.4) containing protease inhibitor (PI) cocktail (Sigma) and lysed by sonication 3×10 s on ice. For co-expression of FGE with one of the PCs in CHO-FD11 Tet-On cells 2 μg of pBI-FGE-HA and 2 μg of the plasmids encoding PCs (see above) were used for transient transfection. In case of transient transfections using pBI-vector constructs the protein expression was induced by replenishing the medium with medium containing 2 μg/mL doxycycline (BD Biosciences) at 5 h post-transfection. […]

[2] = target: T2, PC5a (Mus musculus, UniProt Q04592); test: FGE processing in CHO-FD11 Tet-On cells co-expressing PC5a; format: cell-based, murine; settings: PC5a coexpression
T2 construct: expressed in transfected cells; host or cells: CHO-FD11 Tet-On cells, transient co-transfection with pBI-FGE-HA
T2 sequence (Q04592 117-915 isoform Q04592-2 limits assumed): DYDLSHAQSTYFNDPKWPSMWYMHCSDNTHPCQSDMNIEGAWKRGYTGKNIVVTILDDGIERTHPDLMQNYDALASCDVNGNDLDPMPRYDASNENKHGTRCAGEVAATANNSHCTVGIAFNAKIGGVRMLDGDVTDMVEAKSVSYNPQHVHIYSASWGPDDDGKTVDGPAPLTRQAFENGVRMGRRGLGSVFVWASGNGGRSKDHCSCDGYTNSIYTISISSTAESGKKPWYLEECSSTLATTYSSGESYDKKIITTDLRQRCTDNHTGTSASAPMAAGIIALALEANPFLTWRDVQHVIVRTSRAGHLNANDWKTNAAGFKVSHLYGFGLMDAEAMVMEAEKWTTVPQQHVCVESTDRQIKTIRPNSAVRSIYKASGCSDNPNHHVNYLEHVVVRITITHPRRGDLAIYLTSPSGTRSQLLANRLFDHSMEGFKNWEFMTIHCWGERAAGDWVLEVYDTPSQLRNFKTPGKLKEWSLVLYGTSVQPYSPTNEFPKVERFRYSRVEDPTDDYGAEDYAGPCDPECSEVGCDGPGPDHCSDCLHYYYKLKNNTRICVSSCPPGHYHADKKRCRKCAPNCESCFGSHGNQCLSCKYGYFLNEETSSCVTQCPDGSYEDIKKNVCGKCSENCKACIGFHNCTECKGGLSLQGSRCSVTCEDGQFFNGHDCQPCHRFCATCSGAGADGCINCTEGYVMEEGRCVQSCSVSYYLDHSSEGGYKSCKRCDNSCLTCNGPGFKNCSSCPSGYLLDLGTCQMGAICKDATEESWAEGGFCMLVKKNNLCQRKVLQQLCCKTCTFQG
Source text: as §1, §2

B1: FGE: human wild type full length formylglycine generating enzyme with RYSR furin cleavage motif, SEQ ID NO:2 (protein)
chain: ADEFSQEAGTGAGAGSLAGSCGCGTPQRPGAHGSSAAAHRYSREANAPGPVPGERQLAHSKMVPIPAGVFTMGTDDPQIKQDGEAPARRVTIDAFYMDAYEVSNTEFEKFVNSTGYLTEAEKFGDSFVFEGMLSEQVKTNIQQAVAAAPWWLPVKGANWRHPEGPDSTILHRPDHPVLHVSWNDAVAYCTWAGKRLPTEAEWEYSCRGGLHNRLFPWGNKLQPKGQHYANIWQGEFPVTNTGEDGFQGTAPVDAFPPNGYGLYNIVGNAWEWTSDWWTVHHSVEETLNPKGPPSGKDRVKKGGSYMCHRSYCYRYRCAARSQNTPDSSASNLGFRCAADRLPTMDSGRGSHHHHHHH
modifications: cloned matured acitve full length FGE with 6x His tag on C-terminus
B1 was tested, and the “processing of FGE” value [1] was “low efficiency” and the “processing of FGE” value [2] was “low efficiency”.
